From publication doi:10.1101/2023.02.24.529973 (bioRxiv, 2023)

Target: the molecule itself
Experiment: SEC

B1: Rv2067c, recombinant tagless protein (enzyme)
chain: TDDHPRADIVSRQYHRWLYPHPIADLEAWTTANWEWFDPVHSHRILWPDREYRPDLDILIAGCGTNQAAIFAFTNRAAKVVAIDISRPALDHQQYLKDKHGLANLELHLLPIEELATLGRDFDLVVSTGVLHHLADPRAGMKELAHCLRRDGVVAAMLYGKYGRIGVELLGSVFRDLGLGQDDASIKLAKEAISLLPTYHPLRNYLTKARDLLSDSALVDTFLHGRQRSYTVEECVDLVTSAGLVFQGWFHKAPYYPHDFFVPNSEFYAAVNTLPEVKAWSVMERLETLNATHLFMACRRDRPKEQYTIDFSTVAALDYVPLMRTRCGVSGTDMFWPGWRMAPSPAQLAFLQQVDGRRTIREIAGCVARTGEPSGGSLADLEEFGRKLFQSLWRLDFVAVALPASG
stoichiometry N: 2
